Assays:
Experiment in all cases: ELISA on denatured VLP (carbonate pH 10.6 + DTT; threshold OD>0.5)
[1] = molecular target: T1, denatured VLPs of BK polyomavirus VP-1 protein, serotype Ia (BK virus (BKPyV), serotype Ia, UniProt P03088 1-361)
T1 construct: also called Ia denatured; linearised VP-1 protein
T1 chain: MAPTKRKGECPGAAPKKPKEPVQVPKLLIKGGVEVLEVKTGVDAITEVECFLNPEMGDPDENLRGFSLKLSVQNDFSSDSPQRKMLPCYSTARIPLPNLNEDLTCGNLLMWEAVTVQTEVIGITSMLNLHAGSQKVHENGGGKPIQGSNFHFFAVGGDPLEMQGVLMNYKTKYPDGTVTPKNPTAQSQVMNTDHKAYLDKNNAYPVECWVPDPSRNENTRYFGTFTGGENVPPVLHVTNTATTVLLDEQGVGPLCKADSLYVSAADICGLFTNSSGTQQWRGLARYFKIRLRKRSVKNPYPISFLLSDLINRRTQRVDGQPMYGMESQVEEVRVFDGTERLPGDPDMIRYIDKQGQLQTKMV
Procedure: (§1) The wells were then blocked for 1 hour at +37° C. with a PBS/SVF mixture. After dilution in a dilution buffer containing SVF, PBS and Tween® 20, the individual culture supernatants or purified antibodies were added for 1 hour at +37° C. The wells were washed four times in a row with Wash Buffer and a secondary anti-mouse peroxidase antibody was added to the 1/2000 dilution for 1 hour at +37° C. The wells were washed again four times in a row and the substrate was added for 30 minutes at room temperature. A stop solution was added and then each well was read by measuring the absorbance at 492 nm with a spectrophotometer. The value obtained for the average of the control wells (PBS in the first step) was subtracted from the optical density values obtained for each well (detection threshold: OD>0.5).

[2] = molecular target: T2, denatured VLPs of BK polyomavirus VP-1 protein, serotype Ib2 (BK virus (BKPyV), serotype Ib2, UniProt P03088 1-362)
T2 construct: also called Ib2 denatured
T2 chain: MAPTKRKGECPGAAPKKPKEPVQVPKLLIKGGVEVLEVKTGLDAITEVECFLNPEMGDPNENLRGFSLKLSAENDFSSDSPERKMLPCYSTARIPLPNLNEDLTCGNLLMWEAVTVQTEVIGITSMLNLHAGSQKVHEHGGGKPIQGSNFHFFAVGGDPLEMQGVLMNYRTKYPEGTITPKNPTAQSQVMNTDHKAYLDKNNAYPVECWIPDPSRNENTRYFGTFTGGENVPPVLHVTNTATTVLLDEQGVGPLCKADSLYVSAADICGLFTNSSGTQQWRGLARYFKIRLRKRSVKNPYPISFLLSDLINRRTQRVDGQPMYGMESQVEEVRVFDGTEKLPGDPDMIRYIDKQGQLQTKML
Procedure: as §1

[3] = molecular target: T3, denatured VLPs of BK polyomavirus VP-1 protein, serotype II (BK virus (BKPyV), serotype II, UniProt P14996 1-362)
T3 construct: also called II denatured
T3 chain: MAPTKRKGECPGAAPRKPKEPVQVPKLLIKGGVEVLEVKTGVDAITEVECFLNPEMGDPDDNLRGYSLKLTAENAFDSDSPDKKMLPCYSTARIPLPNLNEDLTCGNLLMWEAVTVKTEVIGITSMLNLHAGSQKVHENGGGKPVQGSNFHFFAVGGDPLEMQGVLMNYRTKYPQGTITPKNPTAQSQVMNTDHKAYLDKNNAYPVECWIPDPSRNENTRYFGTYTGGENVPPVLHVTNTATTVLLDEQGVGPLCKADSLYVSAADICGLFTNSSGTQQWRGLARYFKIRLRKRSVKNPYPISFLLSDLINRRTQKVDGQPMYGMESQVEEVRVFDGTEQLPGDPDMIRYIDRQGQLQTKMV
Procedure: as §1

[4] = molecular target: T4, denatured VLPs of BK polyomavirus VP-1 protein, serotype IV (BK virus (BKPyV), serotype IV, UniProt P14996 1-362)
T4 construct: also called IV denatured
T4 chain: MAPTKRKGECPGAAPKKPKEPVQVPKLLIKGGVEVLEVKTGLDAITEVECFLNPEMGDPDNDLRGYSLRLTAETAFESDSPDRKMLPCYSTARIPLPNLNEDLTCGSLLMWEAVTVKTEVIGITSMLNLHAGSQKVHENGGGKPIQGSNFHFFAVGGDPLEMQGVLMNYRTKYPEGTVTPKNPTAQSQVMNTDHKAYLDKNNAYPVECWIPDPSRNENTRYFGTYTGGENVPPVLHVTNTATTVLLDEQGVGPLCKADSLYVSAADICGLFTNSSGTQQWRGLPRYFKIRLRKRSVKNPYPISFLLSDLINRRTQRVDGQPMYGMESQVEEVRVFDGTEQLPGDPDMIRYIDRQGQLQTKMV
Procedure: as §1

B1: monoclonal antibody ‘18A2’ derived from hybridoma 18A2 (antibody, V domains shown)
VH: DVQLQESGPGLVKPSQSLSLTCSVTGYSITSGYYWNWIRQFPGNKLEWMGYISYDGSNNYNPSLKNRISITRDTSKNQFFLKLNSVTTEDTATYYCARWEGTTDYWGQGTTLTVSS
VL: not shown
notes: Mouse hybridoma antibody
With B1 the “OD 492 nm” value [1] was 3.98 OD, the “OD 492 nm” value [2] was 0.16 OD and the “OD 492 nm” value [3] was 0.63 OD. The “OD 492 nm” value [4] was 0.709 OD.

From patent US20220396612A1 (UNIVERSIT DE TOURS, published 2022)
